According to the Human Domainome abundance scans (Beltran et al. 2025):
± gives the uncertainty stated by the source.

B1: Retinoic acid receptor RXR-alpha, residues 132 to 208; numbered along this chain, P19793 (parent)
chain: KHICAICGDRSSGKHYGVYSCEGCKGFFKRTVRKDLTYTCRDNKDCLIDKRQRNRCQYCRYQKCLAMGMKREAVQEE

Variants of: B1
Test: abundance fitness (aPCA) (normalised: wild type 0, dead -1); higher = more abundant; growth selection in yeast, the domain comes from the species named
Conditions: Homo sapiens

With KHICAICGDRSSGKHYGVYSCEGCKGFFKRTVRKDLTYTCRDNKSCLIDKRQRNRCQYCRYQKCLAMGMKREAVQEE as the variant, how does the abundance fitness read?
The abundance fitness was -0.029 ± 0.035.

Which abundance fitness does the source give for KHICAICGDRSSGKHYGVYSCEGCKGFFKRTVRKDLTYTCRDNKTCLIDKRQRNRCQYCRYQKCLAMGMKREAVQEE here?
The abundance fitness was -0.051 ± 0.051.

For KHICAICGDRSSGKHYGVYSCEGCKGFFKRTVRKDLTYTCRDNKVCLIDKRQRNRCQYCRYQKCLAMGMKREAVQEE, which abundance fitness is on record?
Its abundance fitness is -0.021 ± 0.071.

With KHICAICGDRSSGKHYGVYSCEGCKGFFKRTVRKDLTYTCRDNKWCLIDKRQRNRCQYCRYQKCLAMGMKREAVQEE as the variant, how does the abundance fitness read?
The abundance fitness was -0.025 ± 0.035.

For KHICAICGDRSSGKHYGVYSCEGCKGFFKRTVRKDLTYTCRDNKYCLIDKRQRNRCQYCRYQKCLAMGMKREAVQEE, which abundance fitness is on record?
Its abundance fitness is -0.062 ± 0.063.

Which abundance fitness does the source give for KHICAICGDRSSGKHYGVYSCEGCKGFFKRTVRKDLTYTCRDNKDALIDKRQRNRCQYCRYQKCLAMGMKREAVQEE here?
Its abundance fitness is -0.142 ± 0.04.

Which abundance fitness does the source give for KHICAICGDRSSGKHYGVYSCEGCKGFFKRTVRKDLTYTCRDNKDDLIDKRQRNRCQYCRYQKCLAMGMKREAVQEE here?
Its abundance fitness is -0.035 ± 0.069.

Which abundance fitness does the source give for KHICAICGDRSSGKHYGVYSCEGCKGFFKRTVRKDLTYTCRDNKDELIDKRQRNRCQYCRYQKCLAMGMKREAVQEE here?
Its abundance fitness is -0.189 ± 0.046.

Which abundance fitness does the source give for KHICAICGDRSSGKHYGVYSCEGCKGFFKRTVRKDLTYTCRDNKDFLIDKRQRNRCQYCRYQKCLAMGMKREAVQEE here?
Its abundance fitness is -0.291 ± 0.087.

With KHICAICGDRSSGKHYGVYSCEGCKGFFKRTVRKDLTYTCRDNKDGLIDKRQRNRCQYCRYQKCLAMGMKREAVQEE as the variant, how does the abundance fitness read?
Its abundance fitness is -0.186 ± 0.029.

Which abundance fitness does the source give for KHICAICGDRSSGKHYGVYSCEGCKGFFKRTVRKDLTYTCRDNKDILIDKRQRNRCQYCRYQKCLAMGMKREAVQEE here?
Its abundance fitness is -0.436 ± 0.099.

Which abundance fitness does the source give for KHICAICGDRSSGKHYGVYSCEGCKGFFKRTVRKDLTYTCRDNKDKLIDKRQRNRCQYCRYQKCLAMGMKREAVQEE here?
Its abundance fitness is -0.207 ± 0.052.

With KHICAICGDRSSGKHYGVYSCEGCKGFFKRTVRKDLTYTCRDNKDLLIDKRQRNRCQYCRYQKCLAMGMKREAVQEE as the variant, how does the abundance fitness read?
The abundance fitness was -0.378 ± 0.044.

For KHICAICGDRSSGKHYGVYSCEGCKGFFKRTVRKDLTYTCRDNKDMLIDKRQRNRCQYCRYQKCLAMGMKREAVQEE, which abundance fitness is on record?
The abundance fitness was -0.206 ± 0.046.

For KHICAICGDRSSGKHYGVYSCEGCKGFFKRTVRKDLTYTCRDNKDNLIDKRQRNRCQYCRYQKCLAMGMKREAVQEE, which abundance fitness is on record?
The abundance fitness was -0.22 ± 0.077.

Which abundance fitness does the source give for KHICAICGDRSSGKHYGVYSCEGCKGFFKRTVRKDLTYTCRDNKDPLIDKRQRNRCQYCRYQKCLAMGMKREAVQEE here?
Its abundance fitness is -0.155 ± 0.045.

With KHICAICGDRSSGKHYGVYSCEGCKGFFKRTVRKDLTYTCRDNKDQLIDKRQRNRCQYCRYQKCLAMGMKREAVQEE as the variant, how does the abundance fitness read?
The abundance fitness was -0.288 ± 0.067.

For KHICAICGDRSSGKHYGVYSCEGCKGFFKRTVRKDLTYTCRDNKDRLIDKRQRNRCQYCRYQKCLAMGMKREAVQEE, which abundance fitness is on record?
The abundance fitness was -0.301 ± 0.035.

With KHICAICGDRSSGKHYGVYSCEGCKGFFKRTVRKDLTYTCRDNKDSLIDKRQRNRCQYCRYQKCLAMGMKREAVQEE as the variant, how does the abundance fitness read?
The abundance fitness was -0.274 ± 0.04.

For KHICAICGDRSSGKHYGVYSCEGCKGFFKRTVRKDLTYTCRDNKDVLIDKRQRNRCQYCRYQKCLAMGMKREAVQEE, which abundance fitness is on record?
Its abundance fitness is -0.193 ± 0.036.

Which abundance fitness does the source give for KHICAICGDRSSGKHYGVYSCEGCKGFFKRTVRKDLTYTCRDNKDYLIDKRQRNRCQYCRYQKCLAMGMKREAVQEE here?
The abundance fitness was -0.383 ± 0.086.

With KHICAICGDRSSGKHYGVYSCEGCKGFFKRTVRKDLTYTCRDNKDCAIDKRQRNRCQYCRYQKCLAMGMKREAVQEE as the variant, how does the abundance fitness read?
The abundance fitness was 0.005 ± 0.035.

For KHICAICGDRSSGKHYGVYSCEGCKGFFKRTVRKDLTYTCRDNKDCDIDKRQRNRCQYCRYQKCLAMGMKREAVQEE, which abundance fitness is on record?
The abundance fitness was -0.072 ± 0.055.

With KHICAICGDRSSGKHYGVYSCEGCKGFFKRTVRKDLTYTCRDNKDCEIDKRQRNRCQYCRYQKCLAMGMKREAVQEE as the variant, how does the abundance fitness read?
The abundance fitness was 0.004 ± 0.041.

With KHICAICGDRSSGKHYGVYSCEGCKGFFKRTVRKDLTYTCRDNKDCFIDKRQRNRCQYCRYQKCLAMGMKREAVQEE as the variant, how does the abundance fitness read?
Its abundance fitness is 0.011 ± 0.061.

With KHICAICGDRSSGKHYGVYSCEGCKGFFKRTVRKDLTYTCRDNKDCGIDKRQRNRCQYCRYQKCLAMGMKREAVQEE as the variant, how does the abundance fitness read?
The abundance fitness was 0.016 ± 0.027.

Which abundance fitness does the source give for KHICAICGDRSSGKHYGVYSCEGCKGFFKRTVRKDLTYTCRDNKDCHIDKRQRNRCQYCRYQKCLAMGMKREAVQEE here?
Its abundance fitness is -0.016 ± 0.079.

Which abundance fitness does the source give for KHICAICGDRSSGKHYGVYSCEGCKGFFKRTVRKDLTYTCRDNKDCIIDKRQRNRCQYCRYQKCLAMGMKREAVQEE here?
The abundance fitness was -0.002 ± 0.065.

With KHICAICGDRSSGKHYGVYSCEGCKGFFKRTVRKDLTYTCRDNKDCKIDKRQRNRCQYCRYQKCLAMGMKREAVQEE as the variant, how does the abundance fitness read?
Its abundance fitness is -0.062 ± 0.061.

With KHICAICGDRSSGKHYGVYSCEGCKGFFKRTVRKDLTYTCRDNKDCMIDKRQRNRCQYCRYQKCLAMGMKREAVQEE as the variant, how does the abundance fitness read?
The abundance fitness was -0.048 ± 0.044.

For KHICAICGDRSSGKHYGVYSCEGCKGFFKRTVRKDLTYTCRDNKDCNIDKRQRNRCQYCRYQKCLAMGMKREAVQEE, which abundance fitness is on record?
The abundance fitness was -0.098 ± 0.076.

With KHICAICGDRSSGKHYGVYSCEGCKGFFKRTVRKDLTYTCRDNKDCPIDKRQRNRCQYCRYQKCLAMGMKREAVQEE as the variant, how does the abundance fitness read?
Its abundance fitness is -0.045 ± 0.054.

Which abundance fitness does the source give for KHICAICGDRSSGKHYGVYSCEGCKGFFKRTVRKDLTYTCRDNKDCQIDKRQRNRCQYCRYQKCLAMGMKREAVQEE here?
The abundance fitness was -0.095 ± 0.071.

With KHICAICGDRSSGKHYGVYSCEGCKGFFKRTVRKDLTYTCRDNKDCRIDKRQRNRCQYCRYQKCLAMGMKREAVQEE as the variant, how does the abundance fitness read?
Its abundance fitness is -0.109 ± 0.029.

For KHICAICGDRSSGKHYGVYSCEGCKGFFKRTVRKDLTYTCRDNKDCSIDKRQRNRCQYCRYQKCLAMGMKREAVQEE, which abundance fitness is on record?
Its abundance fitness is -0.122 ± 0.038.

With KHICAICGDRSSGKHYGVYSCEGCKGFFKRTVRKDLTYTCRDNKDCTIDKRQRNRCQYCRYQKCLAMGMKREAVQEE as the variant, how does the abundance fitness read?
The abundance fitness was 0.012 ± 0.049.
